Results on five molecules are retold here after US5679782A, “Oligonucleotides encloding peptide inhibitors of urokinase receptor activity” (Chiron Corporation, priority 1995, dated 1997).

In one assay the target is T1, huPAR (Homo sapiens, UniProt Q03405).
T1 construct: Sf9 cells expressing full length huPAR ("fluPAR", day 2 post infection); expressed in transfected cells; host or cells: Sf9 insect cells (day 2 post infection)
Briefly: Recovery of phage on Sf9 cells expressing full length huPAR. The assay is classed as binding. As to conditions: phage displaying the sequence; Sf9 cells expressing fluPAR. On the procedure:
1.) 15mer phage (2.5×10^10) prepared as described above were selected by coincubation with 10^6 Sf9 cells expressing full length huPAR ("fluPAR", day 2 post infection) at room temperature for 60 minutes in Grace's medium with 2% nonfat milk. Binding phage were eluted with 6M urea (pH 2.2), the pH neutralized by adding 2M Tris-HCl, and assayed. The yield of binding phage was 0.0013% (3.3×10^5 pfu). The phage were amplified on solid agar plates as plaques, eluted with Tris-buffered saline, and precipitated with polyethylene glycol.
(§1) 3.) The phage selected in round 2 were reselected on Sf9 cells expressing fluPAR (day 2 post-infection) as described for round 1 (2.8×10^10 phage on 10^6 Sf9 cells). The yield of binding phage from this round was 5.40% (1.5×10^9 pfu), indicating a substantial enrichment in binding phage. Sample phage from the urea eluate were cloned, and their DNAs isolated and sequenced. Binding was assayed against Sf9 cells expressing fluPAR, and Sf9 cells expressing substance P receptor ("SPR," as a control).

The target in assay [1] is T2, substance P receptor (SPR) (Homo sapiens, UniProt P25103).
T2 construct: expressed in transfected cells; host or cells: Sf9 insect cells
T2 sequence (P25103 whole entry, species assumed): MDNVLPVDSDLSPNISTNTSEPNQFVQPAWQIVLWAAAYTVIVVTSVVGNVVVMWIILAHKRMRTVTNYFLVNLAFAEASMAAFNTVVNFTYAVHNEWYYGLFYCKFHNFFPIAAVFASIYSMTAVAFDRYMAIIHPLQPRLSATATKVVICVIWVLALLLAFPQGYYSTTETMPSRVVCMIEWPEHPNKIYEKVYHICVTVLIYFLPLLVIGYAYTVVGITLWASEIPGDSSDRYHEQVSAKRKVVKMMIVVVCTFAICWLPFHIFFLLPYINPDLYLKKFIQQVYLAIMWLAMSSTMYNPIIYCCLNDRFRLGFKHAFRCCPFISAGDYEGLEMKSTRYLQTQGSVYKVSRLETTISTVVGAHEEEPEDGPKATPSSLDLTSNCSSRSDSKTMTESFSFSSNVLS
The assay can be described thus: Recovery of phage on Sf9 cells expressing substance P receptor (control). The assay is classed as binding. Particulars: phage displaying the sequence. On the procedure:
as §1

In another assay the target is T3, human urokinase receptor (Homo sapiens, UniProt Q03405).
T3 construct: expressed as a truncated, soluble molecule as described previously for mouse L-cells (Masucci et al., J Biol Chem (1991) 266:8655); made in house; host or cells: baculovirus / insect cells
T3 sequence (Q03405 23-299 limits assumed): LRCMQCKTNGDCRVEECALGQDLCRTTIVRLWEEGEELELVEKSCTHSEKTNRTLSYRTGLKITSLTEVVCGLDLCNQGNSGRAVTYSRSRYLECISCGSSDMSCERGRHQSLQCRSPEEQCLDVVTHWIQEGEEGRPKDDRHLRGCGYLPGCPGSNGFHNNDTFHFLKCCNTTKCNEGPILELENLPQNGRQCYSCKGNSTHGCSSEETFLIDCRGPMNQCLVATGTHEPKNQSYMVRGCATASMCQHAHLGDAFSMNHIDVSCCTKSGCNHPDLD
Briefly: Competition of 125I-ATF binding to immobilized soluble recombinant human urokinase receptor. As to conditions: read-out: Affinity. An excerpt: 4.) The peptides encoded by 25 phage were then synthesized by solid phase peptide chemistry on an Applied Biosystems Model 430A peptide synthesizer,using Boc chemistry, or were obtained from Chiron Mimotopes, Ltd., as soluble peptides. All peptides contained the Ala-Glu dipeptide at the amino terminus and were amidated at the carboxy terminus.
Baculovirus-derived recombinant human urokinase receptor was expressed as a truncated, soluble molecule as described previously for mouse L-cells (Masucci et al., J Biol Chem (1991) 266:8655). The purified receptor was biotinylated with NHS-biotin, and immobilized at 1 μg/mL in PBS/0.1% BSA on streptavidin coated 96-well plates. Human uPA ATF (residues 1-135, obtained from M. Shuman, University of California, San Francisco) was iodinated using the Iodogen method (Pierce), and used as tracer. The ^125 I-ATF was incubated at 100-500 pM with increasing amounts of peptide from 1 nM to 10 μM in triplicate for 2 hours at room temperature in 0.1% BSA/PBS in a total volume of 200 μL. The plates were then washed 3 times with PBS/BSA, and the remaining bound radioactivity determined.
*Assay performed at 100 pM ATF, 0.3 μg/ml suPAR in 200 μL. Other
assays are corrected to these conditions; corrections are about 3 ×
from previous assay conditions.

The next assay deals with uPAR (Homo sapiens, UniProt Q03405). Particulars: Appella et al. 1987; cited from earlier work.
Chain of uPAR (Q03405 23-335, species assumed): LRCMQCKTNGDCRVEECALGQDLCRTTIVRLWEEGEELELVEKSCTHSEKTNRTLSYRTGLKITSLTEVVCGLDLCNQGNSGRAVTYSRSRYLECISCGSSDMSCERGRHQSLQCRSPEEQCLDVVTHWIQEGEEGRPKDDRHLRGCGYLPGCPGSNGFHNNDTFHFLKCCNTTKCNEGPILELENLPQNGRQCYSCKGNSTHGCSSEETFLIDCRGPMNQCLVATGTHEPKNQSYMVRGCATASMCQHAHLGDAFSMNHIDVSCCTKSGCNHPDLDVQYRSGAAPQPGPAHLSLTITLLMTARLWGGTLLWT
Setting [2] is: unstarred values: corrected to 100 pM ATF, 0.3 μg/ml suPAR, corrections about 3 × from previous assay conditions.

Where two headings read alike, the source gives them in different places. Peptide text beside a SMILES is read from it.

T1 sequence (Q03405 23-335): as the sequence (Q03405 23-335, species assumed) above

On to “37 (AECLNGGTAVSNKYFSNIHWCN) [compound 37]”, for which the “% Recovery huPAR” value with huPAR was found to be 6.8%. The “% Recovery SPR” value in assay [1] is given as 0.008%.

`CC(C)C[C@H](NC(=O)CNC(=O)[C@@H]1CCCN1C(=O)[C@H](Cc1c[nH]cn1)NC(=O)[C@H](Cc1c[nH]c2ccccc12)NC(=O)[C@H](CCC(=O)O)NC(=O)[C@H](C)N)C(=O)N[C@@H](CO)C(=O)N[C@@H](Cc1ccccc1)C(=O)NCC(=O)N[C@@H](CO)C(=O)N[C@@H](Cc1ccc(O)cc1)C(=O)N[C@@H](CC(C)C)C(=O)N[C@@H](Cc1c[nH]c2ccccc12)C(=O)N[C@@H](CO)C(=O)N[C@@H](CCCCN)C(=O)N[C@H](C(N)=O)[C@@H](C)O` [compound 2] (H-AEWHPGLSFGSYLWSKT-NH2): on human urokinase receptor (setting [2]), the Kd worked out at 0.35 µM.

With `CSCC[C@H](NC(=O)[C@@H](NC(=O)[C@H](CC(N)=O)NC(=O)[C@H](CO)NC(=O)[C@H](CC(C)C)NC(=O)[C@H](Cc1ccccc1)NC(=O)[C@H](Cc1c[nH]c2ccccc12)NC(=O)[C@H](C)NC(=O)[C@H](CCC(=O)O)NC(=O)[C@H](C)N)[C@@H](C)O)C(=O)N[C@@H](CCCCN)C(=O)N[C@@H](C)C(=O)N[C@@H](CC(C)C)C(=O)N[C@@H](CO)C(=O)N[C@@H](C)C(=O)N[C@@H](CCCNC(=N)N)C(=O)N[C@@H](CC(C)C)C(N)=O` [compound 13] (H-AEAWFLSNTMKALSARL-NH2), the Kd at human urokinase receptor (setting [2]) worked out at 5 µM.

As to `CC(C)C[C@H](NC(=O)[C@H](CCCNC(=N)N)NC(=O)[C@H](CC(C)C)NC(=O)[C@@H]1CCCN1C(=O)[C@H](Cc1ccccc1)NC(=O)[C@H](CCC(N)=O)NC(=O)[C@H](Cc1ccc(O)cc1)NC(=O)[C@H](CC(C)C)NC(=O)[C@H](CCC(N)=O)NC(=O)[C@H](Cc1c[nH]c2ccccc12)NC(=O)[C@H](CC(C)C)NC(=O)[C@@H](NC(=O)[C@@H]1CCCN1C(=O)[C@H](CCC(=O)O)NC(=O)[C@H](C)N)[C@@H](C)O)C(=O)N[C@@H](CO)C(=O)NCC(N)=O` [compound 14] (H-AEPTLWQLYQFPLRLSG-NH2), the Kd on human urokinase receptor (starred values: assay performed at 100 pM ATF, 0.3 μg/ml suPAR in 200 μL) was found to be 4 µM.

For “uPA12-32: The critical domain alone, residues 12-32 of uPA EGF-like domain (DCLNGGTCVSNKYFSNIHWCN; UniProt P00749 32-52, looked up, fragment)”, the “affinity fold less than intact ATF” value with uPAR is listed as “about 100 fold”.
